One variant from paper PMC9428257 (2022) can be followed below.

B1: yeast-displayed wild-type sBCMA (human BCMA extracellular domain, Met1-Ala54) [human] / human APRIL (a proliferation-inducing ligand) [human] (parent complex)
chain 1: MLQMAGQCSQNEYFDSLLHACIPCQLRCSSNTPPLTCQRYCNASVTNSVKGTNA
chain 2: AVLTQKQKKQHSVLHLVPINATSKDDSDVTEVMWQPALRRGRGLQAQGYGVRIQDAGVYLLYSQVLFQDVTFTMGQVVSREGQGRQETLFRCIRSMPSHPDRAYNSCYSAGVFHLHQGDILSVIIPRARAKLNLSPHGTFLGFVKL

The variants in the test derive from B1. Nature of the test: flow cytometry binding curve of yeast-displayed sBCMA.
As for chain 1 MLQMAGQCSQNEYFDGLLYACIPCQLRCSSNTPPLACQRYCNASVTNSVKGTNA [chain 1 S16G, chain 1 H19Y, chain 1 T36A], the screen value was 325.
